Laboratory results as given in the supplement of paper PMC12042874.
± gives the uncertainty stated by the source.

Experiment: amyloid nucleation score (Sup35N fusion, yeast selection) (log enrichment); library NNK2; higher = more nucleation; inactive = no reads after selection
Procedure, shortened: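 On medium lacking adenine and uracil, psi-negative yeast expressing peptides of 20 random codons fused to Sup35N were grown 7 days at 30°C after a 24-hour induction with 100 μM copper sulfate. Illumina sequencing of input and output plasmid inserts gave the reads, and sequences under 100 input reads were excluded. The nucleation score is the DiMSum log enrichment of output over input reads, centred on the mode score of non-aggregating sequences.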

Substance	amyloid nucleation score
AYSSMCSTMRNKCCL	0.504 ± 0.6
RRYMVMSDWLDKPWWGYFGV	-0.855 ± 0.24
LFWIGWLRRRKKGIGVANKG	0.001 ± 0.49
SVWWSSNFINPPDFCNM	-1.19 ± 1.1
WWQGI	-0.168 ± 1.1
RPRRSTGCIFVDCKSKQHCI	2.84 ± 0.15
HVYPVWFCWLYSFRLHYSQV	-0.149 ± 0.56
HFSDIRAFCFPCNPIMRVMK	-0.406 ± 0.56
TCDWVVLIYPSSGCCRLEWR	0.99 ± 0.36
SNVRWKRGYGDNTILGGSLT	1.51 ± 0.31
LSDRRFKDLMSTFRNAATYF	6.34 ± 0.047
SVLANIMLVVVGNSGKYRSG	0.627 ± 0.74
FAPSSIDFYRGSKNGLFTAQ	-0.302 ± 0.4
RVMMLEGQASNMAYEEL	0.274 ± 1.1
LNGYNYATCVLSPFFNE	-0.497 ± 0.76
IEPSHFNGNSASWV	-0.184 ± 0.63
CGRLGLHYQCMLCCGIGSIL	2.23 ± 0.27
RNSSYIDFIGRWH	inactive
SRMRVLFALLQDFQSHVGSV	1.36 ± 0.11
YAHRTSTA	0.342 ± 0.62
TSVVNLNRMAFKTKFLQNTI	-1.1 ± 1.1
FIMYFYKRTNYNFIKYHASA	1.52 ± 0.15
YYWTPCGVCITFVGCNVILY	8.499 ± 0.022
LVILAGTVRIVRHGLVALQL	0.592 ± 0.22
RSDVFIGTSIFGALSCV	-0.025 ± 0.45

Substance	amyloid nucleation score
DGIRVLCLTALPFMWVH	inactive
RKWQED	0.488 ± 0.47
DNTELFKNDFKFKLYLSNKI	1.72 ± 0.24
GGMPVFISVTVLYEWNDFLF	6.671 ± 0.032
NLVFSTRIHKFFLNRGEG	5.15 ± 0.058
LDYFNYCSSLGFHMVSVVYV	inactive
EWFNRSRYKCHRRHVLMAMV	0.343 ± 0.8
RSFGSYCAGEGTRSPRDSRG	0.172 ± 0.65
MSIRIGEWPVHSGAYEESLK	0.223 ± 0.45
RYGRRSYLPAIIRCARCLDE	6.56 ± 0.066
MAYWESTVIYYIDWEWDSLV	-1.16 ± 0.39
LLVRLSVCLSSEPANWDTG	4.2 ± 0.073
VIVCCGSCLHRE	9.721 ± 0.05
TSRDFYRNAGIARFAYYNSP	-1.15 ± 0.23
CPTFKIKRDMSLTHRLFNIY	-1.64 ± 0.54
RWDCLQLLISSCFFDMDGCG	-0.668 ± 0.64
MAILVGSFDVDSNCVDSWGV	0.027 ± 0.74
SVLMSCD	0.135 ± 0.65
ILVRTSCGGM	-0.898 ± 1.1
CLFSILLVMIPASFYTAMWL	-0.588 ± 1.1
HVNYWGRLCMKKRCNVDVNH	5.634 ± 0.043
KFYVCCATCGCDKINELPVT	8.088 ± 0.06
SNGVAWQCNGNSYRIFCDTS	7.522 ± 0.069
SFVTCCVSCGWRGQIHAEKL	6.78 ± 0.073
HCLGRLVASWNPQWEFHRRT	0.103 ± 0.38

Substance	amyloid nucleation score
VFYVTYTS	5.76 ± 0.074
LIDRIKWEGPFRIRWLFSWF	0.566 ± 0.66
FRLILWPIDCAINTNRRCNR	4.38 ± 0.051
SLTYRYVHVLC	5.86 ± 0.04
NDAYITSVVGFTRYMYNFMV	inactive
TMFTFIAANSRWLNAKIPWY	0.157 ± 0.25
RLMFLVFSESSKYSALHMWG	0.939 ± 0.19
WNWRVNDGVPGMTYVKAYSS	-0.672 ± 0.42
KKQSRIHLSTSKNRFTWNTW	0.007 ± 0.35
HRVWRVAFVQVRSFIY	-0.038 ± 1
QSGLIHY	-0.894 ± 0.78
FWLSTWSFNVVYPDGEAQKS	-0.303 ± 0.48
LRNVRMYDLSLWSRGTRCEG	0.88 ± 0.28
SVFRND	-0.28 ± 0.3
NKVVAFNGLV	inactive
TWHKFVSCDCGLH	0.677 ± 0.47
CFSLYSCKDSINDMLKRSQN	-1.12 ± 1.1
KETTGWLRYIP	-0.56 ± 0.56
MLLHMWCWIGPGKYLSVTKF	inactive
ALSSVFYIDFHFDYLYDVTL	2.72 ± 0.2
ANVENVAYSDTISRSDSDVT	0.805 ± 0.66
YTMASLS	1.74 ± 0.13
GRFVSVKHYS	inactive
SHFCVVCEYTLVSSYHR	5.09 ± 0.09
AYIDVTWWPFVFLDQVMYTT	0.089 ± 0.48

Substance	amyloid nucleation score
QHLLLCAAM	0.399 ± 0.74
TFWGTTY	inactive
LGSLNNPA	7.941 ± 0.077
LVTLFESGFFRRLTSMDGLF	0.115 ± 0.51
KSVRGPCSYIFKYSCY	2.59 ± 0.22
MVSLLNFRECMHY	inactive
RVDKMMYSRLPCLVAV	0.466 ± 0.49
KDTMK	-0.001 ± 0.24
QFLSYCFWIGNPLVNFINAN	5.874 ± 0.039
FPFSGFVDFSVLVLRYKGSP	1.82 ± 0.16
EWRKPGFVRGLRLNCVLRYF	-1.51 ± 0.78
FGGIFCFSLYR	3.52 ± 0.071
IIEIRAASGPVGFSDINMF	-0.459 ± 1.1
SRKTIVGFYGVPGVRYACIW	inactive
KSAIVRYQVGRVALEFFAAG	inactive
YNYVPLDFVRPVSDWSLELR	-0.405 ± 0.39
KVSGRYVEEYDHFPTDLSSL	-0.046 ± 0.54
HCTDGFLMAYVSFSRGMIIM	inactive
STFSYGCSSTGAFCRLLCRM	0.516 ± 0.64
VLASWSDFKSRGRGNSSVSG	1.24 ± 0.33
YPTASVTATSHTFILSSNKN	3.48 ± 0.063
FGCPIVPVISIGFPLYGVYY	1.1 ± 0.3
SCSWLLSEIGCESVEIRRTV	5.51 ± 0.082
YGLWVYMNWLVSLRSLLTRI	inactive
TRMCGMGTQGGLSRF	0.257 ± 0.65

Substance	amyloid nucleation score
INRCMLIPTRFVVAYSWKCV	-1.03 ± 0.78
EDFMRCRVWVSRGLVPSWGS	0.747 ± 0.24
RFGFRSGPTSSRMWYSFLEF	3.15 ± 0.11
MMLSLANNHGSL	0.174 ± 0.28
FYECNMSQVRDFPLHMYRYS	inactive
AAQIHYSKYNDDVYFSFEEK	0.283 ± 0.37
VLLRVRRCYSVPTFRVWSAT	1.39 ± 0.18
YPEDEFFQHRRWKRILSWDV	inactive
YHPTLVLGYQLTLLFMAFL	0.613 ± 0.74
RMNWGSNFLEE	-0.663 ± 0.32
GKIKTVFWSKDLRFVFIMCV	-0.633 ± 0.48
SHLCQVLVVLGGASTV	6.41 ± 0.077
SRCEVNTWLLILSGGITPMN	0.722 ± 0.37
TKLYNDIFHNW	inactive
LGCEDIHKEYSLHFSIWMQM	0.975 ± 0.18
NVHDEWKGFVSGTCGKVEKA	0.355 ± 0.29
ETRVITGDVSDRF	2.55 ± 0.091
QNWVCMNRVYDLKDTYEIDL	-0.526 ± 0.35
KAGLWYNCPAMYDGYLRLKA	1.98 ± 0.15
LMGIEVDGYYGCRCLTP	0.236 ± 1.1
LLVGIGMFEEQFQLYHI	-0.867 ± 0.29
VIYLIGSHYTLVSNRLYEIG	8.186 ± 0.08
FDAMSSFLQYLLTHKMWVGD	0.799 ± 0.43
SKEVAAGCSLGIRVVMFKR	inactive
SVFMIYKTVSGGHAYFVVQQ	4.97 ± 0.072

Substance	amyloid nucleation score
MPIEVILCFGG	1.84 ± 0.34
NINRAQHISDVSCPDENLCI	4.07 ± 0.11
GLYANFVPAIRTDGRGWRFW	-0.352 ± 0.48
TLFVKTYMSVFYIIACSSC	-0.218 ± 0.64
NGWIYAYDLLLERTSQSWKI	-0.472 ± 0.32
AFYCTVC	7.346 ± 0.043
CSTVLRGCVLGQYLYGYSSG	-0.258 ± 0.41
FSCSSDCLIFVSHRNRVLLN	-0.596 ± 0.37
LLPSSFVGGVNDVVELLSCG	0.092 ± 1.1
IPRIDDSDLFRTLDF	-0.52 ± 1.1
SLPAENSFIEF	-1.25 ± 0.39
FSIGCVMGLAINLSGFALWV	1.84 ± 0.14
KLVIKLRIIYYASV	3.74 ± 0.084
EGMTMTHGAGQLMLGGTASV	0.904 ± 0.44
KAMYFYSRTVRPMMGSEEGS	-0.072 ± 0.4
EKVDCSVLAGNNWTWVNISL	6.7 ± 0.079
SLTMYGSIEWLNNVSAILRH	0.541 ± 0.66
GYVFHYVSIQL	7.957 ± 0.027
TLDFCEL	inactive
RCLPSIFDPMRVTRVLPELY	-0.017 ± 1
TVLVSRFDIIRHRCPTELKR	0.153 ± 0.8
YICMLLDKPRFLSRSSRSLV	inactive
VMKFMWKMMLNRERAPYHVL	-0.784 ± 0.49
RIFVIGNFVDCWLRLWT	0.256 ± 0.65
LISSSFRSVLRPNWTPLKVC	inactive

Substance	amyloid nucleation score
VLLTNQRMVFCMGRFAPRVG	-0.556 ± 0.32
DLDIC	-0.2 ± 0.3
YWKPCLVAVGWSTQLRCCPV	-0.324 ± 0.3
SQVTISHSNEHMVGACAVYR	-0.456 ± 0.54
LSGKT	0.312 ± 0.54
VFKRNQ	0.769 ± 0.41
KASMCGMKVWKFFQYLIKMV	-1.1 ± 0.61
NNSGSNKSD	-0.509 ± 0.78
DFMSSVFCQAVWVHAPRRVR	0.6 ± 0.74
YNQFNFFTG	6.913 ± 0.045
IGIDRL	-0.069 ± 0.49
FVIVVFRPLGKWQRLFFCNC	0.811 ± 0.21
SWKSFKRPGTRCRGQYYYMS	-0.266 ± 1
MTYCCITSVPRGRIQNDAVR	inactive
FYIIRD	-0.866 ± 0.76
GICLSNTGRMCFG	0.009 ± 0.39
HGGSVWRRHSVFNAICISSS	1.11 ± 0.18
MRVLFIDYKTVRYCDDL	-1.03 ± 1.1
SGRCNSN	-0.63 ± 0.79
